Measurements: publication doi:10.1101/2023.04.03.535445 (bioRxiv, 2023)

Tests used:
[1] = target: truncated Pex5 containing a single Wxxx(F/Y) motif (residues 314-666; Pex5TPR) (Trypanosoma cruzi) (UniProt Q4DPQ9); assay: ITC
[2] = target: glycosomal malate dehydrogenase (MDH, residues 1-323) of Trypanosoma cruzi (Trypanosoma cruzi) (UniProt Q4DRD8); assay: ITC
[3] = target: MDH GSGS-linker mutant (GSGS introduced between PTS1 and MDH) (Trypanosoma cruzi); assay: ITC
[4] = target: MDH with the 62-70 loop replaced with GS-linker (Trypanosoma cruzi); assay: ITC
[5] = target: Pex5 Y358A mutant (Pex5TPR) (Trypanosoma cruzi) (UniProt Q4DPQ9); assay: ITC
[6] = target: Pex5TPR with a GSGS-spacer between the TPR domain and the Wxxx(F/Y) motif (Trypanosoma cruzi) (UniProt Q4DPQ9); assay: ITC
[7] = target: Pex5 mutant with a partial deletion of the 457-489 loop (Pex5 Δ470-480) (Trypanosoma cruzi) (UniProt Q4DPQ9); assay: ITC
cryo-EM structure = target: the molecule itself; assay: cryo-EM structure

Molecule: Pex14NTD(A48F) (domain or fragment)
- fold decrease in affinity against wild type Pex14NTD [1]: 2 fold

Molecule: Pex5 P490R mutant (from UniProt Q4DPQ9 316-668) (domain or fragment)
- fold decrease in affinity against wild type Pex5 [2]: > 3 fold

Molecule: truncated Pex5 containing a single Wxxx(F/Y) motif (residues 314-666; Pex5TPR) (from UniProt Q4DPQ9 316-668) (domain or fragment)
- Kd [2]: 435 nM
- fold increase in affinity against wild type MDH [3]: 4 fold
- fold decrease in affinity against wild type MDH [4]: 2.5 fold

Molecule: N-terminal domain of Pex14 (Pex14NTD; residues 21-85) of Trypanosoma cruzi (domain or fragment)
- fold decrease in affinity against wild type Pex5 [5]: 1.5 fold
- fold decrease in affinity against wild type Pex5 [6]: 3.5 fold
- Kd [1]: 53 nM

B1: short peptide encompassing PTS1 of MDH (residues 319-ARSKL-323) (peptide)
peptide: H-ARSKL-OH
- fold decrease in affinity against wild type Pex5 [7]: 3 fold

B2: glycosomal malate dehydrogenase (MDH, residues 1-323) of Trypanosoma cruzi (enzyme, UniProt Q4DRD8 1-323, looked up)
chain: MVNVAVIGAAGGIGQSLSLLLLRELPFGSTLSLYDVVGAPGVAADLSHIDRAGITVKHAAGKLPPVPRDPALTELAEGVDVFVIVAGVPRKPGMTRDDLFNVNAGIVMDLVLTCASVSPNACFCIVTNPVNSTTPIAAQTLRKIGVYNKNKLLGVSLLDGLRATRFINNARHPLVVPYVPVVGGHSDVTIVPLYSQIPGPLPDESTLKEIRKRVQVAGTEVVKAKAGRGSATLSMAEAGARFTMHVVKALMGLDTPMVYAYVDTDGEHECPFLAMPVVLGKNGIERRLPIGPITTVEKEMLEEAVGVVKKNIAKGETFARSKL
- stoichiometry N (cryo-EM structure): 4
